What is called EC50 is the midpoint of the concentration-response curve. Usually Kd stands for the equilibrium constant for the complex coming apart. For orientation: IC50 means the point on the concentration scale where inhibition reaches its midpoint.

These results are taken from patent US20120094909A1 (Bristol-Myers Squibb, published 2012).

Assay [1] has as its target T1, human PCSK9 (proprotein convertase subtilisin kexin type 9) (human, UniProt Q8NBP7 31-692).
T1 construct: immobilized directly (ProteOn), biotinylated (Octet) or in solution, according to the assay; also called hPCSK9; PCSK9-AF647 (labelled form)
Description: PCSK9:EGFA FRET, competitor EGFA peptide.

The target in assay [2] is T1, human PCSK9 (proprotein convertase …). Kind of assay: BLI (Octet Red), 37 C. The method, then:
Tips were then immersed into a buffer-only well for observation of Adnectin dissociation. Experiments were performed in a temperature controlled environment at either 25 or 37° C., and the oscillation speed was set at 1500 rpm.
Binding interaction analysis was performed using proprietary software from Fortebio (Fortebio Data Analysis Software version 6.3.0.36). Global fits were performed for all samples, using a 1:1 binding model. The nature of these global fits constrained all values of concentration to a single pair of association and dissociation rates that were themselves constrained to each other. Affinities (KD), association and dissociation rates were averaged over the various loading levels used in the analysis.
In general terms: BLI is a label-free optical method that tracks binding on a fibre tip over time.

Assay [3] shares this target. Description: cell-based or functional assay.
For assay [4], the target named is T2, human PCSK9 (proprotein convertase subtilisin kexin type 9) (human, UniProt Q8NBP7 31-692).
T2 construct: Directly immobilized (SPR ProteOn), biotinylated (BLI), or in solution, depending on the assay; also called hPCSK9
Description: FRET, competitor EGFA peptide. The source says:
(§1) Table 11 summarizes the overall data from these three FRET assays.

The target in a further assay is cynomolgus monkey PCSK9 (cynomolgus monkey, UniProt A0A7N9D9N8 150-747). Description: FRET, competitor EGFA peptide.
Excerpt: as §1

B1: 2382D05 (designed binder)
chain: MGVSDVPRDLEVVAATPTSLLISWDAPADGGYGYYRITYGETGGNSPVQEFTVPVSKGTATISGLKPGVDYTITVYAVEFDFPGAGYYHRPISINYRTEIDKPSQHHHHHH
Take B1: the concentration for a half-maximal effect (EC50) in assay [1] was found to be 2.6 nM. For the same molecule, the equilibrium dissociation constant (Kd) in assay [2] stood at 0.314 nM.

B2: 2382F02 (designed binder)
chain: MGVSDVPRDLEVVAATPTSLLISWDAPAGGGYGYYRITYGETGGNSPVQEFTVPVSKGTATISGLKPGVDYTITVYAVEFDFPGSGYYHRPISINYRTEIDKPSQHHHHHH
For B2, in assay [1], the EC50 was 2.6 nM. Moreover, in assay [3], the “LDLR Depletion (% inhibition at 75 nM)” value is -6.3%.

B3: 2381B10 (designed binder)
chain: MGVSDVPRDLEVVAATPTSLLISWDAPAGGGYGYYRITYGETGGNSPVQEFTVPVSKGTATISGLKPGVDYTITVYAVEYNFIGAGYYHRPISINYRTEIDKPSQHHHHHH
In assay [1], B3 had an EC50 of 7.3 nM. Besides, the “LDLR Depletion (% inhibition at 75 nM)” value in assay [3] was found to be 96.4%.

B4: 2382E04 (designed binder)
chain: MGVSDVPRDLEVVAATPTSLLISWDAPAGGGYGYYRITYGETGGNSPVQEFTVPVSKGTATISGLKPGVDYTITVYAVEFTFPGAGYYHRPISINYRTEIDKPSQHHHHHH
Molecule B4 yielded an EC50 in assay [1] of 3 nM. For the same molecule, the “LDLR Depletion (% inhibition at 75 nM)” value in assay [3] worked out at 61.5%.

B5: 2382F03 (designed binder)
chain: MGVSDVPRDLEVVAATPTSLLISWDAPAADAYGYYRITYGETGGNSPVQEFTVPVSKGTATISGLKPGVDYTITVYAVEFNFPGAGYYHRPISINYRTEIDKPSQHHHHHH
In turn, B5 came in with an EC50 in assay [1] of 2.7 nM. In addition, the “LDLR Depletion (% inhibition at 75 nM)” value in assay [3] came out at 88.6%.

B6: 2381A08 (designed binder)
chain: MGVSDVPRDLEVVAATPTSLLISWDAPADGGYGYYRITYGETGGNSPVQEFTVPGSKGTATISGLKPGVDYTITVYAVEYDFPGAGYYHRPISINYRTEIDKPSQHHHHHH
On to B6, for which the half-maximal effective concentration (EC50) in assay [1] was found to be 3.6 nM. In assay [3], the “LDLR Depletion (% inhibition at 75 nM)” value was 91.4%.

B7: 2382A01 (designed binder)
chain: MGVSDVPRDLEVVAATPTSLLISWAAPAGGGYGYYRITYGETGGNSPVQEFTVPVSKGTATISGLKPGVDYTITVYAVEYDFPGAGYYHRPISINYRTEIDKPSQHHHHHH
In turn, B7 yielded an EC50 in assay [1] of 12.9 nM. Moreover, the “LDLR Depletion (% inhibition at 75 nM)” value in assay [3] came to 120%.

B8: 2382H04 (designed binder)
chain: MGVSDVPRDLEVVAATPTSLLISWDAPAAGGYGYYRITYGETGGNSPVQEFTVPSSKGTATISGLKPGVDYTITVYAVEYDFPGAGYYHRPISINYRTEIDKPSQHHHHHH
In assay [1], B8 registered a concentration giving a half-maximal response (EC50) of 3.2 nM. Further, the “LDLR Depletion (% inhibition at 75 nM)” value in assay [3] was found to be 68.2%.

B9: 2381C08 (designed binder)
chain: MGVSDVPRDLEVVAATPTSLLISWDAPADGAYGYYRITYGETGGNSPVQEFTVPVSKGTATISGLKPGVDYTITVYAVEFPYPFAGYYHRPISINYRTEIDKPSQHHHHHH
B9: in assay [1], a half-maximal effect (EC50) was put at 0.7 nM. Also, the “LDLR Depletion (% inhibition at 75 nM)” value in assay [3] is 15.3%.

B10: 2451A10 (designed binder)
chain: MGVTDVPRDMEVVAATPTSLLISWQPPAVTYGYYRITYGETGGNSTLQQFTVPVYKGTATISGLKPGVDYTITVYAVEYPYDHSGYYHRPISINYRTEIDKPSQHHHHHH
In turn, B10 displayed a concentration for a half-maximal effect (EC50) in assay [1] of 10.9 nM. In addition, the “LDLR Depletion (% inhibition at 75 nM)” value in assay [3] was 53.7%.

B11: 2451C11 (designed binder)
chain: MGIVDVPRDLEVVAATPTSLLISWDPPAGAYGYYRITYGETGGNSPKQQFTVPGYKGTATISGLKPGVDYTITVYAVEYPYDHSGYYHRPISINYRTEIDKPSQHHHHHH
The molecule B11 displayed a 50% effective concentration (EC50) in assay [1] of 9.7 nM. Also, the “LDLR Depletion (% inhibition at 75 nM)” value in assay [3] worked out at 70.3%.

B12: 2381G06 (designed binder)
chain: MGVSDVPRDLEVVAATPTSLLISWSEKLDGKARRGYYRITYGETGGNSPVQQFTVPGSKGTATISGLKPGVDYTITVYAVEFPYDHSGYYHRPISINYRTEIDKPSQHHHHHH
On to B12, for which the EC50 in assay [1] is 9 nM. Further, in assay [3], the “LDLR Depletion (% inhibition at 75 nM)” value was 57.7%.

B13: 2381H06 (designed binder)
chain: MGVSDVPRDLEVVAATPTSLLISWGDVRTNEARQGYYRITYGETGGNSPLQGFTVPGSKGTATISGLKPGVDYTITVYAVEYTYEHSGYYHRPISINYRTEIDKPSQHHHHHH
As to B13, in assay [1], the half-maximal effective concentration (EC50) stood at 5 nM. Further, the “LDLR Depletion (% inhibition at 75 nM)” value in assay [3] stood at 53.4%.

B14: 2381D02 (designed binder)
chain: MGVSDVPRDLEVVAATPTSLLISWEPFSRLPGGGEYYRITYGETGGNSPLQQFTVPGSKGTATISGLKPGVDYTITVYAVEYPYDHSGYYHRPISINYRTEIDKPSQHHHHHH
In assay [1], B14 returned an EC50 of 3.1 nM. In addition, in assay [3], the “LDLR Depletion (% inhibition at 75 nM)” value is 185%.

B15: 2381G03 (designed binder)
chain: MGVSDVPRDLEVVAATPTSLLISWEPFSRLPGGGEYYRITYGETGGNSPLQQFTVPGSKGTATISGLKPGVDYTITVYAVEFPYAHSGYYHRPISINYRTEIDKPSQHHHHHH
Take B15: in assay [1], the half-maximal effective concentration (EC50) was found to be 3.4 nM. Besides, the “LDLR Depletion (% inhibition at 75 nM)” value in assay [3] turned out to be 70.2%.

B16: 2381B06 (designed binder)
chain: MGVSDVPRDLEVVAATPTSLLISWEPFSRLPGGGEYYRITYGETGGNSPLQQFTVPGSKGTATISGLKPGVDYTITVYAVEYPYPHSGYYHRPISINYRTEIDKPSQHHHHHH
Turning to B16, the concentration giving a half-maximal response (EC50) in assay [1] was determined as 3.5 nM. In assay [3], the “LDLR Depletion (% inhibition at 75 nM)” value came to 120%.

B17: 2381H03 (designed binder)
chain: MGVSDVPRDLEVVAATPTSLLISWEPFSRLPGGGEYYRITYGETGGNSPLQQFTVPGSKGTATISGLKPGVDYTITVYAVEYPYAHSGYFHRPISINYRTEIDKPSQHHHHHH
Molecule B17 showed a concentration giving a half-maximal response (EC50) in assay [1] of 3.4 nM. The “LDLR Depletion (% inhibition at 75 nM)” value in assay [3] came to 89.8%.

B18: 2381A04 (designed binder)
chain: MGVSDVPRDLEVVAATPTSLLISWEPFSRLPGGGEYYRITYGETGGNSPLQQFTVPGSKGTATISGLKPGVDYTITVYAVEYPYPFSGYYHRPISINYRTEIDKPSQHHHHHH
Molecule B18 displayed a half-maximal effective concentration (EC50) in assay [1] of 3.3 nM. The “LDLR Depletion (% inhibition at 75 nM)” value in assay [3] was 100%.

B19: 2382B09 (designed binder)
chain: MGVSDVPRDLEVVAATPTSLLISWDAPADAYGYYRITYGETGGNSPVQEFTVPVSKGTATISGLKPGVDYTITVYAVEFDYPGSGYYHRPISINYRTEIDKPSQHHHHHH
On to B19, for which the EC50 in assay [1] came out at 3.8 nM. The affinity in assay [2], expressed as Kd, was 0.656 nM. The “LDLR Depletion (% inhibition at 75 nM)” value in assay [3] came to 105%.

B20: 2971A09 (designed binder)
chain: MGVSDVPRDLEVVAATPTSLLISWDAPADDYGYYRITYGETGGNSPVQEFTVPIGKGTATISGLKPGVDYTITVYAVEFPWPHAGYYHRPISINYRTEIDKPSQHHHHHH
Take B20: the dissociation constant (Kd) in assay [2] stood at 2.79 nM. The “LDLR Depletion (% inhibition at 75 nM)” value in assay [3] came to 132%.

B21: 2971A03 (designed binder)
chain: MGVSDVPRDLEVVAATPTSLLISWDPPSDDYGYYRITYGETGGNSPVQEFTVPIGKGTATISGLKPGVDYTITVYAVEFPWPHAGYYHRPISINYRTEIDKPSQHHHHHH
Take B21: in assay [2], the affinity, expressed as Kd, was 0.806 nM. Also, in assay [3], the “LDLR Depletion (% inhibition at 75 nM)” value worked out at 120%.

B22: 2971E02 (designed binder)
chain: MGVSDVPRDLEVVAATPTSLLISWDAPSDDYGYYRITYGETGGNSPVQEFTVPIGKGTATISGLKPGVDYTITVYAVEFPWPHAGYYHRPISINYRTEIDKPSQHHHHHH
As for B22, binding in assay [2] was characterised by a dissociation constant (Kd) of 1.78 nM. Also, the “LDLR Depletion (% inhibition at 75 nM)” value in assay [3] amounted to 126%.

B23: 1922G04(R25D) (designed binder)
chain: MGVSDVPRDLEVVAATPTSLLISWDPPSHAYGYYRITYGETGGNSPVQEFTVPIGKGTATISGLKPGVDYTITVYAVEYPWKGSGYYHRPISINYRTGSGSHHHHHH
notes: Anti-PCSK9 Adnectin, GSGS-His6 tail; the entry already carries the substitution
For the molecule B23, the values for the 50% inhibitory concentration (IC50) (in assay [4]; with cynomolgus monkey PCSK9) were 2.5 nM and 48.1 nM, respectively.

B24: 1922G04(R25E) (designed binder)
chain: MGVSDVPRDLEVVAATPTSLLISWEPPSHAYGYYRITYGETGGNSPVQEFTVPIGKGTATISGLKPGVDYTITVYAVEYPWKGSGYYHRPISINYRTGSGSHHHHHH
notes: as for B23
B24: the IC50 in assay [4] turned out to be 3.5 nM; with cynomolgus monkey PCSK9 it was 58.5 nM.

B25: 2381H01 (designed binder)
chain: MGVSDVPRDLEVVAATPTSLLISWSPRDSTGLVRRGYYRITYGETGGNSPVQQFTVPGSKGTATISGLKPGVDYTITVYAVEYPYDHSGYYHRPISINYRTEIDKPSQHHHHHH
Regarding B25, the EC50 in assay [1] worked out at 4 nM. For the same molecule, the “LDLR Depletion (% inhibition at 75 nM)” value in assay [3] is 22.2%.

B26: 2382G03 (designed binder)
chain: MGVSDVPRDLEVVAATPTSLLISWDAPAEAEAYGYYRITYGETGGNSPVQEFTVPVSKGTATISGLKPGVDYTITVYAVEYVFPGAGYYHRPISINYRTEIDKPSQHHHHHH
B26 gave an EC50 in assay [1] of 2.7 nM. In assay [3], the “LDLR Depletion (% inhibition at 75 nM)” value turned out to be 77.8%.
